Reference: the PETadex activity labels (doi:10.3390/ijms25158120)

Key:
p-NP-C4 = details: pH 6; 70 °C
[1] = Melting temperature [DSF / Thermofluor]; details: pH 8.5
pNPB [2] = assay: Proxy for plastic degradation [Residual activity]; details: pH 7
pNPB [3] = assay: Proxy for plastic degradation [Relative activity]; details: pH 7
pNPB [4] = assay: Proxy for plastic degradation [Specific activity]
PET [5] = assay: Proxy for plastic degradation [Released monomer concentration (HPLC/LC-MS) (TPA)]; details: pH 7
PET [6] = assay: Proxy for plastic degradation [Released monomer concentration (HPLC/LC-MS) (BHET)]; details: pH 7
BHET = assay: Proxy for plastic degradation [Released monomer concentration (HPLC/LC-MS) (MHET)]; details: pH 7
PET [7] = assay: as above; details: pH 7
PET [8] = assay: Proxy for plastic degradation [Released monomer concentration (HPLC/LC-MS) (TPA+MHET+BHET)]; details: pH 7
PET [9] = assay: Proxy for plastic degradation [Released monomer concentration (HPLC/LC-MS) (TPA+MHET+BHET+Total aromatic products)]; details: pH 7, 0 h
[10] = 30 °C, 0 h, part of the chain shown
[11] = 30 °C, 48 h, part of the chain shown
[12] = 30 °C, 72 h, part of the chain shown
[13] = 30 °C, 96 h, part of the chain shown

B1: unnamed (protein)
chain: MKIVKTLLTVIFSVLMVVSMAHAVQIGPNPTSTLLNGDGPFAVSSSSVSSLACGTGCAGGTVYYPTTAGQYGVIAVCPGYTGTSSSIAWFARRLATHGFVTIAMDTNSTLDYPSSRATQLAAALRYLINSSSSTIRSRIRTADRGVAGHSMGGGGTLIASADDSTLRVGIPMTPWNTYTSFSSVRVPQMIFGADGDTIASASSHARPFYNSITQAEKAYALLNDASHFTPNSTDQRIGRYGVAFAKRFVDGDTRYNPFLCGAEHTAYATSSRFDTYLSNCPY
Km (p-NP-C4): 80 µM
kcat (p-NP-C4): 447 s⁻¹
kcat/Km (p-NP-C4): 5.59e+06 M⁻¹ s⁻¹
Melting temperature [1]: 82 °C
Proxy for plastic degradation (pNPB [2]; 50 °C, 0 h): 100%
Proxy for plastic degradation (pNPB [2]; 50 °C, 0.33 h): 54%
Proxy for plastic degradation (pNPB [2]; 50 °C, 0.5 h): 38%
Proxy for plastic degradation (pNPB [2]; 50 °C, 1 h): 49%
Proxy for plastic degradation (pNPB [2]; 50 °C, 2 h): 57%
Proxy for plastic degradation (pNPB [2]; 50 °C, 3 h): 46%
Proxy for plastic degradation (pNPB [2]; 50 °C, 6 h): 65%
Proxy for plastic degradation (pNPB [2]; 50 °C, 24 h): 52%
Proxy for plastic degradation (pNPB [2]; 50 °C, 48 h): 55%
Proxy for plastic degradation (pNPB [2]; 50 °C, 72 h): 43%
Proxy for plastic degradation (pNPB [2]; 50 °C, 96 h): 30%
Proxy for plastic degradation (pNPB [2]; 70 °C, 0 h): 100%
Proxy for plastic degradation (pNPB [2]; 70 °C, 0.33 h): 54%
Proxy for plastic degradation (pNPB [2]; 70 °C, 0.5 h): 51%
Proxy for plastic degradation (pNPB [2]; 70 °C, 2 h): 70%
Proxy for plastic degradation (pNPB [2]; 70 °C, 3 h): 51%
Proxy for plastic degradation (pNPB [2]; 70 °C, 6 h): 50%
Proxy for plastic degradation (pNPB [2]; 70 °C, 24 h): 52%
Proxy for plastic degradation (pNPB [2]; 70 °C, 48 h): 47%
Proxy for plastic degradation (pNPB [2]; 70 °C, 72 h): 20%
Proxy for plastic degradation (pNPB [2]; 70 °C, 96 h): 17%
Proxy for plastic degradation (pNPB [3]; 50 °C, 0 h): 100%
Proxy for plastic degradation (pNPB [3]; 50 °C, 0.33 h): 55%
Proxy for plastic degradation (pNPB [3]; 50 °C, 0.5 h): 38%
Proxy for plastic degradation (pNPB [3]; 50 °C, 1 h): 50%
Proxy for plastic degradation (pNPB [3]; 50 °C, 2 h): 60%
Proxy for plastic degradation (pNPB [3]; 50 °C, 4 h): 48%
Proxy for plastic degradation (pNPB [3]; 50 °C, 6 h): 65%
Proxy for plastic degradation (pNPB [3]; 50 °C, 24 h): 50%
Proxy for plastic degradation (pNPB [3]; 50 °C, 48 h): 52%
Proxy for plastic degradation (pNPB [3]; 50 °C, 72 h): 40%
Proxy for plastic degradation (pNPB [3]; 50 °C, 96 h): 35%
Proxy for plastic degradation (pNPB [3]; 70 °C, 0 h): 100%
Proxy for plastic degradation (pNPB [3]; 70 °C, 0.33 h): 55%
Proxy for plastic degradation (pNPB [3]; 70 °C, 0.5 h): 52%
Proxy for plastic degradation (pNPB [3]; 70 °C, 1 h): 50%
Proxy for plastic degradation (pNPB [3]; 70 °C, 2 h): 70%
Proxy for plastic degradation (pNPB [3]; 70 °C, 4 h): 50%
Proxy for plastic degradation (pNPB [3]; 70 °C, 6 h): 48%
Proxy for plastic degradation (pNPB [3]; 70 °C, 24 h): 50%
Proxy for plastic degradation (pNPB [3]; 70 °C, 48 h): 40%
Proxy for plastic degradation (pNPB [3]; 70 °C, 72 h): 20%
Proxy for plastic degradation (pNPB [3]; 70 °C, 96 h): 18%
Proxy for plastic degradation (pNPB [4]; pH 4): 0 U/mg
Proxy for plastic degradation (pNPB [4]; pH 5): 225 U/mg
Proxy for plastic degradation (pNPB [4]; pH 7): 200 U/mg
Proxy for plastic degradation (pNPB [4]; pH 7, 50 °C): 500 U/mg
Proxy for plastic degradation (pNPB [4]; pH 9): 150 U/mg
Proxy for plastic degradation (pNPB [4]; pH 10): 75 U/mg
Proxy for plastic degradation (PET [5]; 30 °C, 0 h): 0 µM
Proxy for plastic degradation (PET [5]; 50 °C, 0 h): 0 µM
Proxy for plastic degradation (PET [5]; 50 °C, 48 h): 140 µM
Proxy for plastic degradation (PET [5]; 50 °C, 96 h): 330 µM
Proxy for plastic degradation (PET [5]; 70 °C, 0 h): 0 µM
Proxy for plastic degradation (PET [5]; 70 °C, 24 h): 180 µM
Proxy for plastic degradation (PET [6]; 30 °C, 0 h): 0 µM
Proxy for plastic degradation (PET [6]; 50 °C, 0 h): 0 µM
Proxy for plastic degradation (PET [6]; 50 °C, 48 h): 10 µM
Proxy for plastic degradation (PET [6]; 70 °C, 0 h): 0 µM
Proxy for plastic degradation (PET [6]; 70 °C, 24 h): 5 µM
Proxy for plastic degradation (PET [6]; 70 °C, 48 h): 3 µM
Proxy for plastic degradation (PET [6]; 70 °C, 72 h): 2 µM
Proxy for plastic degradation (BHET; 30 °C, 0 h): 0 µM
Proxy for plastic degradation (BHET; 30 °C, 40 h): 4 µM
Proxy for plastic degradation (BHET; 30 °C, 60 h): 5 µM
Proxy for plastic degradation (BHET; 50 °C, 0 h): 0 µM
Proxy for plastic degradation (BHET; 70 °C, 0 h): 0 µM
Proxy for plastic degradation (PET [7]; 30 °C, 0 h): 0 µM
Proxy for plastic degradation (PET [7]; 30 °C, 24 h): 240 µM
Proxy for plastic degradation (PET [7]; 50 °C, 0 h): 0 µM
Proxy for plastic degradation (PET [7]; 70 °C, 0 h): 0 µM
Proxy for plastic degradation (PET [7]; 70 °C, 24 h): 180 µM
Proxy for plastic degradation (PET [8]; 30 °C, 0 h): 0 µM
Proxy for plastic degradation (PET [8]; 30 °C, 24 h): 320 µM
Proxy for plastic degradation (PET [8]; 30 °C, 48 h): 380 µM
Proxy for plastic degradation (PET [8]; 30 °C, 72 h): 390 µM
Proxy for plastic degradation (PET [8]; 30 °C, 96 h): 400 µM
Proxy for plastic degradation (PET [8]; 50 °C, 0 h): 0 µM
Proxy for plastic degradation (PET [8]; 50 °C, 24 h): 500 µM
Proxy for plastic degradation (PET [8]; 50 °C, 48 h): 620 µM
Proxy for plastic degradation (PET [8]; 50 °C, 72 h): 630 µM
Proxy for plastic degradation (PET [8]; 50 °C, 96 h): 700 µM
Proxy for plastic degradation (PET [8]; 70 °C, 0 h): 0 µM
Proxy for plastic degradation (PET [8]; 70 °C, 24 h): 370 µM
Proxy for plastic degradation (PET [8]; 70 °C, 48 h): 410 µM
Proxy for plastic degradation (PET [8]; 70 °C, 72 h): 405 µM
Proxy for plastic degradation (PET [8]; 70 °C, 96 h): 410 µM
Proxy for plastic degradation (PET [9]; 30 °C): 0 µM
Proxy for plastic degradation (PET [9]; 50 °C): 0 µM
Proxy for plastic degradation (PET [9]; 70 °C): 0 µM

B2: unnamed (protein)
chain: MNFPRASRLMQAAVLGGLMAVSAAATAQTNPYARGPNPTAASLEASAGPFTVRSFTVSRPSGYGAGTVYYPTNAGGTVGAIAIVPGYTARQSSIKWWGPRLASHGFVVITIDTNSTLDQPSSRSSQQMAALRQVASLNGTSSSPIYGKVDTARMGVMGWSMGGGGSLISAANNPSLKAAAPQAPWDSSTNFSSVTVPTLIFACENDSIAPVNSSALPIYDSMSRNAKQFLEINGGSHSCANSGNSNQALIGKKGVAWMKRFMDNDTRYSTFACENPNSTRVSDFRTANCS
Proxy for plastic degradation (PET [5]; [10]): 0 µM
Proxy for plastic degradation (PET [5]; [11]): 60 µM
Proxy for plastic degradation (PET [6]; [10]): 0 µM
Proxy for plastic degradation (PET [6]; [12]): 26 µM
Proxy for plastic degradation (BHET; [10]): 0 µM
Proxy for plastic degradation (BHET; 30 °C, 20 h, part of the chain shown): 12 µM
Proxy for plastic degradation (BHET; 30 °C, 40 h, part of the chain shown): 19 µM
Proxy for plastic degradation (BHET; 30 °C, 60 h, part of the chain shown): 24 µM
Proxy for plastic degradation (BHET; 50 °C, 0 h, part of the chain shown): 0 µM
Proxy for plastic degradation (BHET; 50 °C, 40 h, part of the chain shown): 5.9 µM
Proxy for plastic degradation (BHET; 50 °C, 60 h, part of the chain shown): 5.6 µM
Proxy for plastic degradation (BHET; 70 °C, 0 h, part of the chain shown): 0 µM
Proxy for plastic degradation (BHET; 70 °C, 20 h, part of the chain shown): 2.3 µM
Proxy for plastic degradation (BHET; 70 °C, 40 h, part of the chain shown): 3 µM
Proxy for plastic degradation (BHET; 70 °C, 60 h, part of the chain shown): 1.85 µM
Proxy for plastic degradation (BHET; part of the chain shown): 4 µM
Proxy for plastic degradation (PET [7]; [10]): 0 µM
Proxy for plastic degradation (PET [7]; [11]): 505 µM
Proxy for plastic degradation (PET [7]; [13]): 460 µM
Proxy for plastic degradation (PET [8]; [10]): 0 µM
Proxy for plastic degradation (PET [8]; 30 °C, 24 h, part of the chain shown): 580 µM
Proxy for plastic degradation (PET [8]; [11]): 590 µM
Proxy for plastic degradation (PET [8]; [12]): 600 µM
Proxy for plastic degradation (PET [8]; [13]): 520 µM

B3: unnamed (protein)
chain: MQTNPYARGPNPTAASLEASAGPFTVRSFTVSRPSGYGAGTVYYPTNAGGTVGAIAIVPGYTARQSSIKWWGPRLASHGFVVITIDTNSTLDQPSSRSSQQMAALRQVASLNGTSSSPIYGKVDTARMGVMGWSMGGGGSLISAANNPSLKAAAPQAPWDSSTNFSSVTVPTLIFACENDSIAPVNSSALPIYDSMSRNAKQFLEINGGSHSCANSGNSNQALIGKKGVAWMKRFMDNDTRYSTFACENPNSTRVSDFRTANCSLEHHHHHH
Proxy for plastic degradation (BHET; 30 °C, 0 h): 0 µM
Proxy for plastic degradation (BHET; 30 °C, 20 h): 12 µM
Proxy for plastic degradation (BHET; 30 °C, 40 h): 20 µM
Proxy for plastic degradation (BHET; 30 °C, 60 h): 25 µM
Proxy for plastic degradation (BHET; 50 °C, 0 h): 0 µM
Proxy for plastic degradation (BHET; 50 °C, 20 h): 5 µM
Proxy for plastic degradation (BHET; 50 °C, 40 h): 5.5 µM
Proxy for plastic degradation (BHET; 50 °C, 60 h): 5.5 µM
Proxy for plastic degradation (BHET; 70 °C, 0 h): 0 µM
Proxy for plastic degradation (BHET; 70 °C, 20 h): 2.5 µM
Proxy for plastic degradation (BHET; 70 °C, 40 h): 3 µM
Proxy for plastic degradation (BHET; 70 °C, 60 h): 2 µM
Proxy for plastic degradation (PET [9]; 30 °C): 0 µM
